The labels stand for the following.
B1: Guanyl-specific ribonuclease T1, P00651 (parent)
chain: MMYSKLLTLTTLLLPTALALPSLVERACDYTCGSNCYSSSDVSTAQAAGYQLHEDGETVGSNSYPHKYNNYEGFDFSVSSPYYEWPILSSGDVYSGGSPGADRVVFNENNQLAGVITHTGASGNNFVECT
B2: Chemotaxis protein CheY, P0AE67 (parent)
chain: MADKELKFLVVDDFSTMRRIVRNLLKELGFNNVEEAEDGVDALNKLQAGGYGFVISDWNMPNMDGLELLKTIRADGAMSALPVLMVTAEAKKENIIAAAQAGASGYVVKPFTAATLEEKLNKIFEKLGM
B3: E188K|H125Y, Q88HV5 (parent)
chain: MPFQQGLLATPVPAHARHLFFTLQSPEALPAALDALLPQVDGKQLLLGVGAPLAKALGREIPGLRPFPLLDAAVENPSTQHALWLWLRGDERGDLLLRTQALEQALAPALSLADSVDGFLHRGGHDLTGYEDGTENPTDEEAVQAAIAADGSSFAAFQLWKHDLQYFKSLPQADQDNIIGRRLSDNEELDDAPASAHVKRTAQESFEPEAFMVRRSVSWADQRGAGLAFVALGKSFEAFEVQLRRMSGLEDGIIDGLYRFSRPLTGGYYWCPPMSETGVDLSPLLRA

Variants of B1 are the subject of one data set. The settings on record: Aspergillus oryzae (strain ATCC 42149 / RIB 40); pH 7; 25 °C; Urea; Fluorescence; MOPS 30 mM; structure 1RN1; whole UniProt chain shown.
For the variant MMYSKLLTLTTLLLPTALALPSLVERACDYTCGSNCYSSSDVSTAQAAGYQLHEDGETVGSNSYPHKYNNYEGFDFSVSSPYYAWPILSSGDVYSGGSPGADRVVFNENNQLAGVITHTGASGNNFVECT [E84A], the “ddG of mutation (higher = less stable)” value is 0.9 kcal/mol, the denaturant m value worked out at 1.2 kcal/mol/M, the “denaturant midpoint (higher = more stable)” value amounted to 3.92 M and the unfolding free energy is 4.72 kcal/mol.

On to MMYSKLLTLTTLLLPTALALPSLVERACDYTCGSNCYSSSDVSTAQAAGYKLHEDGETVGSNSYPHKYNNYEGFDFSVSSPYYEWPILSSGDVYSGGSPGADRVVFNENNQLAGVITHTGASGNNFVECT [Q51K], for which the “ddG of mutation (higher = less stable)” value is -0.77 kcal/mol, the denaturant m value was 1.21 kcal/mol/M, the “denaturant midpoint (higher = more stable)” value was determined as 5.3 M and the unfolding free energy was 6.39 kcal/mol.

The same data set, now with this note: Aspergillus oryzae (strain ATCC 42149 / RIB 40); pH 7; 48.6 °C; Thermal; Fluorescence; MOPS 30 mM; structure 1RN1; whole UniProt chain shown.
Consider MMYSKLLTLTTLLLPTALALPSLVERACDYTCGSNCYSSSDVSTAQAAGYQLHEDGETVGSNSYPHKYNNYEGFDFSVSSPYYAWPILSSGDVYSGGSPGADRVVFNENNQLAGVITHTGASGNNFVECT [E84A], for which the “ddG of mutation (higher = less stable)” value is 0.78 kcal/mol.

For MMYSKLLTLTTLLLPTALALPSLVERACDYTCGSNCYSSSDVSTAQAAGYKLHEDGETVGSNSYPHKYNNYEGFDFSVSSPYYEWPILSSGDVYSGGSPGADRVVFNENNQLAGVITHTGASGNNFVECT [Q51K], the “ddG of mutation (higher = less stable)” value was -0.93 kcal/mol.

Staying with this data set, now noted: Aspergillus oryzae (strain ATCC 42149 / RIB 40); pH 5; 10 °C; GdnHCl; CD; Na acetate 0.1 M; structure 1RN1; whole UniProt chain shown.
MMYSKLLTLTTLLLPTALALPSLVERACDYTCGSNCYSSSDVSTAQAAGYQLHEDGETVGSNSYPHKYNNYEGFDFSVSGNYYEWPILSSGDVYSGGSPGADRVVFNENNQLAGVITHTGASGNNFVECT [S80G P81N]: the denaturant m value was 2.8 kcal/mol/M and the unfolding free energy is 11.2 kcal/mol.

Staying with this data set, now noted: Aspergillus oryzae (strain ATCC 42149 / RIB 40); pH 8; 15 °C; Urea; Absorbance; Tris-HCl 0.1 M; NaCl 2.8 M; structure 1RN1; whole UniProt chain shown.
For the variant MMYSKLLTLTTLLLPTALALPSLVERACDYTCGSNCYSSSDVSTAQAAGYQLHEDGETVGSNSYPHKYNNYEGFDFSVSGNYYEWPILSSGDVYSGGSPGADRVVFNENNQLAGVITHTGASGNNFVECT [S80G P81N], the unfolding free energy came out at 5.98 kcal/mol.

The data set is the same for the next values; noted with them: Aspergillus oryzae (strain ATCC 42149 / RIB 40); pH 8; 15 °C; Urea; CD; Tris-HCl 0.1 M; NaCl 2.5 M; structure 1RN1; whole UniProt chain shown.
Turning to MMYSKLLTLTTLLLPTALALPSLVERACDYTCGSNCYSSSDVSTAQAAGYQLHEDGETVGSNSYPHKYNNYEGFDFSVSGNYYEWPILSSGDVYSGGSPGADRVVFNENNQLAGVITHTGASGNNFVECT [S80G P81N], the unfolding free energy came to 2.44 kcal/mol.

Staying with this data set, now noted: Aspergillus oryzae (strain ATCC 42149 / RIB 40); pH 7; 25 °C; Thermal; CD; MOPS 30 mM; structure 1RN1; whole UniProt chain shown.
Regarding MMYSKLLTLTTLLLPTALALPSLVERACDYTCGSNCYSSSDVSTAQAAGYQLHEDGETVGSNSYPHKYNNYEGFHFSVSSPYYEWPILSSGDVYSGGSPGADRVVFNENNQLAGVITHTGASGNNFVECT [D75H], the “ddG of mutation (higher = less stable)” value was -1.1 kcal/mol.

The data set is the same for the next values; noted with them: Aspergillus oryzae (strain ATCC 42149 / RIB 40); pH 7; Thermal; Fluorescence; MOPS 30 mM; structure 1RN1; whole UniProt chain shown.
Take MMYSKLLTLTTLLLPTALALPSLVERACDYTCGSNCYSSSDVSTAQAAGYKLHEDGETVGSNSYPHKYNNYEGFDFSVSSPYYEWPILSSGDVYSGGSPGADRVVFNENNQLAGVITHTGASGNNFVECT [Q51K]: the Tm came to 51.7 °C; the “change of melting temperature, mutant - wild type (higher = more stable)” value was found to be 3.4 °C; the “unfolding enthalpy (van 't Hoff)” value turned out to be 107 kcal/mol.

The variants in the next data set derive from B2. As to conditions: Escherichia coli (strain K12); pH 7; 25 °C; Urea; Fluorescence; Cacodylate 100 mM; structure 1CEY; whole UniProt chain shown.
On to MADKELKFLVVDAFSTMRRIVRNLLKELGFNNVEEAEDGVDALNKLQAGGYGFVISDWNMPNMDGLELLKTIRADGAMSALPVLMVTAEAKKENIIAAAQAGASGYVVKPFTAATLEEKLNKIFEKLGM [D13A], for which the “ddG of mutation (higher = less stable)” value was -2.7 kcal/mol and the unfolding free energy came to 8.3 kcal/mol.

As to MADKELKFLVVDDFSTMRRIVRNLLKELGFNNVEEAEDGVDALNKLQAGGYGFVISAWNMPNMDGLELLKTIRADGAMSALPVLMVTAEAKKENIIAAAQAGASGYVVKPFTAATLEEKLNKIFEKLGM [D57A], the “ddG of mutation (higher = less stable)” value was -3.3 kcal/mol and the unfolding free energy was 8.9 kcal/mol.

On to MADKELKFLVVADFSTMRRIVRNLLKELGFNNVEEAEDGVDALNKLQAGGYGFVISDWNMPNMDGLELLKTIRADGAMSALPVLMVTAEAKKENIIAAAQAGASGYVVKPFTAATLEEKLNKIFEKLGM [D12A], for which the “ddG of mutation (higher = less stable)” value is -2.5 kcal/mol and the unfolding free energy was found to be 8.1 kcal/mol.

The next data set covers variants of B3. As to conditions: Pseudomonas putida (strain ATCC 47054 / DSM 6125 / CFBP 8728 / NCIMB 11950 / KT2440); pH 7.6; Fluorescence spectroscopy; whole UniProt chain shown.
Consider MPFQQGLLATPVPAHARHLFFTLQSPEALPAALDALLPQVDGKQLLLGVGAPLAKALGREIPGLRPFPLLDAAVENPSTQHALWLWLRGDERGDLLLRTQALEQALAPALSLADSVDGFLHRGGYDLTGYEDGTENPTDEEAVQAAIAADGSSFAAFQLWKHDLQYFKSLPQADQDNIIGRRLSDNEKLDDAPASAHVKRTAQESFEPEAFMVRRSVSWADQRGAGLAFVALGKSFEAFEVQLRRMSGLEDGIIDGLYRFSRPLTGGYYWCPPMSETGVDLSPLLRA [E188K H125Y], for which the Tm was determined as 61 °C.

For the variant MPFQQGLLATPVPAHARHLFFTLQSPEALPAALDALLPQVDGKQLLLGVGAPLAKALGREIPGLRPFPLLDAAVENPSTQHALWLWLRGDERGDLLLRTQALEQALAPALSLADSVDGFLHRGGYDLTGYEDGTENPTDEEVVQAAIAADGSSFAAFQLWKHDLQYFKSLPQADQDNIIGRRLSDNEKLDDAPASAHVKRTAQESFEPEAFMVRRSVSWADQRGAGLAFVALGKSFEAFEVQLRRMSGLEDGIIDGLYRFSRPLTGGYYWCPPMSETGVDLSPLLRA [E188K A142V H125Y], the Tm is 59 °C.

These data come from FireProtDB.
